According to patent publication US20120094909A1 (Bristol-Myers Squibb, published 2012):
Positions count from the first letter of the chain named. Values joined by “and” are separate entries in the source; they are usually repeats but may differ in a detail not shown here. Equal entries are not always repeated. Where two headings read alike, the source gives them in different places. Values belong to the binder of their own block, whether it stands above or below them.

What was measured:
[1] = target: T1, human PCSK9 (proprotein convertase subtilisin kexin type 9) (human, UniProt Q8NBP7 31-692); test: ITC, 37 C
T1 construct: immobilized directly (ProteOn), biotinylated (Octet) or in solution, according to the assay; also called hPCSK9; PCSK9-AF647 (labelled form)

[2] = target: T1, human PCSK9 (proprotein convertase …); test: cell-based or functional assay
[3] = target: T1, human PCSK9 (proprotein convertase …); test: SPR (ProteOn), 25 C
[4] = target: T1, human PCSK9 (proprotein convertase …); test: BLI (Octet Red), 37 C
Protocol: Tips were then immersed into a buffer-only well for observation of Adnectin dissociation. Experiments were performed in a temperature controlled environment at either 25 or 37° C., and the oscillation speed was set at 1500 rpm.
Binding interaction analysis was performed using proprietary software from Fortebio (Fortebio Data Analysis Software version 6.3.0.36). Global fits were performed for all samples, using a 1:1 binding model. The nature of these global fits constrained all values of concentration to a single pair of association and dissociation rates that were themselves constrained to each other. Affinities (KD), association and dissociation rates were averaged over the various loading levels used in the analysis.

[5] = target: T1, human PCSK9 (proprotein convertase …); test: cell-based or functional assay; remark: listed apart in the source
[6] = target: T1, human PCSK9 (proprotein convertase …); test: PCSK9:EGFA FRET, competitor EGFA peptide
[7] = target: T1, human PCSK9 (proprotein convertase …); test: SPR (ProteOn), PCSK9 immobilized directly, 25 C
Protocol: (§1) The binding characteristics were characterized by Surface Plasmon Resonance (SPR). […] This allowed kinetic determination in the absence of regeneration. […] Evaluation of the kinetic parameters was performed using the Langmuir interaction model and constant parameter fitting with the ProteOn Manager software.

[8] = target: T2, human PCSK9 (proprotein convertase subtilisin kexin type 9) (human, UniProt Q8NBP7 31-692); test: SPR ProteOn, 25 C
T2 construct: Directly immobilized (SPR ProteOn), biotinylated (BLI), or in solution, depending on the assay; also called hPCSK9
Protocol: as §1

[9] = target: T3, cynomolgus monkey PCSK9 (cynomolgus monkey, UniProt A0A7N9D9N8 150-747); test: SPR ProteOn, 25 C
T3 construct: also called cyno PCSK9; cPCSK9
Protocol: as §1

[10] = target: T2, human PCSK9 (proprotein convertase …); test: cell-based or functional assay; remark: listed apart in the source
[11] = target: T2, human PCSK9 (proprotein convertase …); test: FRET, competitor ATI000972
Text: (§2) Table 11 summarizes the overall data from these three FRET assays.

[12] = target: T2, human PCSK9 (proprotein convertase …); test: FRET, competitor EGFA peptide
Text: as §2

[13] = target: T3, cynomolgus monkey PCSK9; test: FRET, competitor EGFA peptide
Text: as §2

[14] = target: T2, human PCSK9 (proprotein convertase …); test: SPR ProteOn, PCSK9 immobilized, 25 C
Protocol: as §1

[15] = target: T3, cynomolgus monkey PCSK9; test: SPR ProteOn, PCSK9 immobilized, 25 C
Protocol: as §1

[16] = target: T2, human PCSK9 (proprotein convertase …); test: FRET direct binding, anti-his6 antibody
Text: as §2

[17] = target: T4, cynomolgus monkey PCSK9 (cynomolgus monkey, UniProt A0A7N9D9N8 150-747); test: SPR ProteOn, 25 C
Protocol: as §1

[18] = target: T4, cynomolgus monkey PCSK9; test: FRET, competitor EGFA peptide
Text: as §2

[19] = target: T4, cynomolgus monkey PCSK9; test: SPR ProteOn, PCSK9 immobilized, 25 C
Protocol: as §1

[20] = target: T2, human PCSK9 (proprotein convertase …); test: BLI, biotinylated hPCSK9 on sensor tips
[21] = target: T2, human PCSK9 (proprotein convertase …); test: ITC, 37 C
Protocol: Solution phase binding was measured in 25 mM HEPES, pH 7.41, 150 mM NaCl at 37° C.

[22] = target: T2, human PCSK9 (proprotein convertase …); test: KinExA, solution phase
Protocol: Due to technical limitations, the lowest concentration of Adnectins that could be tested was 1 nM.

[23] = target: T2, human PCSK9 (proprotein convertase …); test: SPR Biacore, ATI-1081 captured on anti-His antibody, hPCSK9 in flow, 25 C
Protocol: The binding characteristics were characterized by Surface Plasmon Resonance (SPR). […] […] Duplicate experiments for PRD460 were performed on different days. Kinetic determinations were performed at 25° C. Evaluation of the kinetic parameters was performed using the 1:1 Binding algorithm on the BIACORE® Evaluation software.

B1: 1459D05 (designed binder)
chain: MGVSDVPRDLEVVAATPTSLLISWPPPSHGYGYYRITYGETGGNSPVQEFTVPPGKGTATISGLKPGVDYTITVYAVEYPYKHSGYYHRPISINYRTEIDKPSQHHHHHH
notes: also called ATI000891; ATI-891
Kd [1]: 26 nM | DiI-LDL uptake in HepG2 cells, EC50 [2]: 190 nM | percentage of PCSK9 inhibition at 75 nM [2]: 66.8% | Kd [3]: 1.58 nM | Kd [4]: 14.4 nM | LDLR Depletion (% inhibition at 75 nM) [5]: 66.8% | LDLR Depletion EC50 [5]: > 200 nM | EC50 [6]: 4 nM | Kd [7]: 1.6 nM

B5: 2013E01 (designed binder)
chain: B1 chain with P25V, H29D, G30D, P54I, Y79F, Y81W, K82P, S84A
notes: Anti-PCSK9 Adnectin, His6-tagged, unmodified (not PEGylated); also called ATI001081
Ka [21]: 7.1e+08 M⁻¹ | Kd [21]: 1.4 nM | Stoichiometry (N) [21]: 0.926 | ΔH [21]: -26.6 kcal/mol | ΔS [21]: -45.4 cal/mol °C | Kd [8]: 0.29 nM | Kd [9]: 8.1 nM | Kd [22]: 0.0695 nM | LDLR Depletion EC50 [10]: 10 nM | IC50 [11]: 1.8 nM | EC50 [12]: 1.6 nM | IC50 [12]: 1.6 nM | EC50 [13]: 12.5 nM | Kd [15]: 8.1 nM | koff [15]: 0.00177 s⁻¹ | kon [15]: 219000 M⁻¹ s⁻¹ | koff [20]: 0.000837 s⁻¹ and 0.000349 s⁻¹ | kon [20]: 546000 M⁻¹ s⁻¹ and 829000 M⁻¹ s⁻¹ | EC50 [16]: 0.9 nM | Kd [23]: 6.7 nM | koff [23]: 0.000245 s⁻¹ | kon [23]: 36500 M⁻¹ s⁻¹

More lines, in order of falling Kd [8], values ahead:

Kd [8]: 0.25 nM | Kd [9]: 24.3 nM | LDLR Depletion EC50 [10]: 12 nM | IC50 [11]: 1.2 nM | EC50 [12]: 2.1 nM | IC50 [12]: 2.1 nM | EC50 [13]: 70.3 nM | Kd [14]: 0.251 nM | koff [14]: 6.47e-05 s⁻¹ | kon [14]: 259000 M⁻¹ s⁻¹ | Kd [15]: 24.3 nM | koff [15]: 0.00475 s⁻¹ | kon [15]: 195000 M⁻¹ s⁻¹ | EC50 [16]: 1.4 nM
B2: 2012A04 (designed binder)
chain: B1 chain with P25R, H29N, Y31H, P54V, G55N, K56E, Y79F, Y81F, H83W
notes: Anti-PCSK9 Adnectin, His6-tagged

Kd [8]: 0.09 nM | Kd [17]: 15 nM | LDLR Depletion EC50 [10]: 10 nM | IC50 [11]: 2 nM | EC50 [12]: 1.2 nM | IC50 [12]: 1.2 nM | EC50 [18]: 26.6 nM | Kd [14]: 0.094 nM | koff [14]: 5.08e-05 s⁻¹ | kon [14]: 541000 M⁻¹ s⁻¹ | Kd [19]: 15 nM | koff [19]: 0.007 s⁻¹ | kon [19]: 465000 M⁻¹ s⁻¹ | Kd [20]: 0.255 nM | koff [20]: 0.00014 s⁻¹ | kon [20]: 532000 M⁻¹ s⁻¹ | EC50 [16]: 2.5 nM
B4: 1922G04 (designed binder)
chain: B1 chain with P25R, G30A, P54I, Y81W, H83G
notes: Anti-PCSK9 Adnectin, His6-tagged; also called ATI001057; ATI-1057

Kd [8]: 0.08 nM | Kd [17]: 23.1 nM | LDLR Depletion EC50 [10]: 12 nM | IC50 [11]: 1.4 nM | EC50 [12]: 2.7 nM | IC50 [12]: 2.7 nM | EC50 [18]: 17.2 nM | Kd [14]: 0.079 nM | koff [14]: 9.76e-06 s⁻¹ | kon [14]: 118000 M⁻¹ s⁻¹ | Kd [19]: 23.1 nM | koff [19]: 0.0044 s⁻¹ | kon [19]: 190000 M⁻¹ s⁻¹ | Kd [20]: 0.293 nM | koff [20]: 8.2e-05 s⁻¹ | kon [20]: 286000 M⁻¹ s⁻¹ | EC50 [16]: 2 nM
B3: 2011H05 (designed binder)
chain: B1 chain with P25V, P27S, G30A, P54V, K56V, P80A, Y81F, K82E, H83G, S84A
notes: Anti-PCSK9 Adnectin, His6-tagged; also called ATI001091
